Key:
Assay in all cases: flow cytometry, reporter cells, secondary antibody alone (blank)
LAIR1 on reporter cells = LAIR1 on reporter cells (UniProt Q6GTX8)
[1] = biological target: LILRA1 on reporter cells (extracellular domain) (UniProt O75019)
LILRA2 = biological target: LILRA2
LILRA3 = biological target: LILRA3
LILRA4 = biological target: LILRA4
LILRA5 = biological target: LILRA5
LILRA6 = biological target: LILRA6
LILRB1 = biological target: LILRB1
[2] = biological target: LILRB2 chimeric receptor on LILRB2 reporter cells (extracellular domain of LILRB2 fused with transmembrane/intracellular domains of PILRb) (UniProt Q8N423)
LILRB3 = biological target: LILRB3
LILRB4 = biological target: LILRB4
LILRB5 = biological target: LILRB5
Sequence of LILRB5 (chain, as listed by the source limits assumed): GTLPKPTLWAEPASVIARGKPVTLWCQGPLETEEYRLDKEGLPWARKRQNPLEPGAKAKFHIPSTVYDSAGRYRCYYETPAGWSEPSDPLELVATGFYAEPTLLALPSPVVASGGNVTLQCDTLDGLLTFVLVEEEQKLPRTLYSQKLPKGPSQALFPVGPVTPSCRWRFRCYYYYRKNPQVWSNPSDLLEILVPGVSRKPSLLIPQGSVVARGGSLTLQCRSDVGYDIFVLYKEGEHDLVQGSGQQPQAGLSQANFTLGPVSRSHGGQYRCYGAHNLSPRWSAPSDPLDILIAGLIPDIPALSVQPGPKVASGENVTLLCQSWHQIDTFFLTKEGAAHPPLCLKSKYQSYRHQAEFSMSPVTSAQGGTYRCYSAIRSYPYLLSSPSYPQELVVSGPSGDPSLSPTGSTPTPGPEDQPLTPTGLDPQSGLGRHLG

Sequence of LILRA2 (chain, as listed by the source limits assumed): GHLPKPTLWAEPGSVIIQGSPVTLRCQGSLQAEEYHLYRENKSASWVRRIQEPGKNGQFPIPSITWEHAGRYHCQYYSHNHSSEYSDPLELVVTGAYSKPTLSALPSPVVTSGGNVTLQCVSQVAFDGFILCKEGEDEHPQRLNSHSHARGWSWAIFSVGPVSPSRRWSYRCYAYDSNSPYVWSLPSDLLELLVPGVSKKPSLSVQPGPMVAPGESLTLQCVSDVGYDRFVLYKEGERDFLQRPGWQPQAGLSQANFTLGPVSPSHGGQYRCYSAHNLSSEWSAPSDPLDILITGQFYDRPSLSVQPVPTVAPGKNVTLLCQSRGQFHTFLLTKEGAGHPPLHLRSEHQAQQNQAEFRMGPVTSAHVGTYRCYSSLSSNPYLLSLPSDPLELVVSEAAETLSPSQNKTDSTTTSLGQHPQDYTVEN
Sequence of LAIR1 on reporter cells (Q6GTX8 22-165 limits assumed): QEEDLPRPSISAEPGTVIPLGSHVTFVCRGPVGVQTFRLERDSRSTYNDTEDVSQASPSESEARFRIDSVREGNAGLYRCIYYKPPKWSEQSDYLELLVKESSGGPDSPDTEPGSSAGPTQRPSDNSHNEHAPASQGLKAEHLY
Sequence of LILRA3 (chain, as listed by the source limits assumed): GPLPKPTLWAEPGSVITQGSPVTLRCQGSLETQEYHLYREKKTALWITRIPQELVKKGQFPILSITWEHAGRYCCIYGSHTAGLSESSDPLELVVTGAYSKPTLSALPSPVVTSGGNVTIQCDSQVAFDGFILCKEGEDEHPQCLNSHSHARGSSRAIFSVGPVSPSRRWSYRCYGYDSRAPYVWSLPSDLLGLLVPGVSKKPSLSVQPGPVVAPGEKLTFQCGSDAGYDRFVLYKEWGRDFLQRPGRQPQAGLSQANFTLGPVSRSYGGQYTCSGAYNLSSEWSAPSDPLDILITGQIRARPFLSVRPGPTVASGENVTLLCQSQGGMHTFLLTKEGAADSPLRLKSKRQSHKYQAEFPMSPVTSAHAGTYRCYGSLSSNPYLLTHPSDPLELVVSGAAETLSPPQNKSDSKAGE
Sequence of LILRA1 on reporter cells (extracellular domain) (O75019 17-461 limits assumed): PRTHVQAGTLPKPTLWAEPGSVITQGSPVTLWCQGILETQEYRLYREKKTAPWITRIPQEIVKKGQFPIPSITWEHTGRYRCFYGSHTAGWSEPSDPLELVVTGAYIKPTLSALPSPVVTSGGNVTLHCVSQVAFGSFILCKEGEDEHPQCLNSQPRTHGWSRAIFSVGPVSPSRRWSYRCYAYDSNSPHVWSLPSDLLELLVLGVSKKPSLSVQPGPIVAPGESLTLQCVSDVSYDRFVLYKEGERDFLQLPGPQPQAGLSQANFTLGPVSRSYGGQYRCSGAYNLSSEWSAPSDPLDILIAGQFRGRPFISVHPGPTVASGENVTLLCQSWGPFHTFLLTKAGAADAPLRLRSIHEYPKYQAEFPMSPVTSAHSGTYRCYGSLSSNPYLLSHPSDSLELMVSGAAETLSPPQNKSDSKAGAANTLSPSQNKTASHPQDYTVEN
Sequence of LILRA5 (chain, as listed by the source limits assumed): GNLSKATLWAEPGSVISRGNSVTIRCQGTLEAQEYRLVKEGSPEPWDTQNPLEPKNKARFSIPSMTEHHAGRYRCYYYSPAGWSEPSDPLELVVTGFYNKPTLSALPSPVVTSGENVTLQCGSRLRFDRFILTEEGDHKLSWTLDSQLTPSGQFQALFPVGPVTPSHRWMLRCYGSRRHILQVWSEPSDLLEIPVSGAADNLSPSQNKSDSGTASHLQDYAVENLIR
Sequence of LILRA4 (chain, as listed by the source limits assumed): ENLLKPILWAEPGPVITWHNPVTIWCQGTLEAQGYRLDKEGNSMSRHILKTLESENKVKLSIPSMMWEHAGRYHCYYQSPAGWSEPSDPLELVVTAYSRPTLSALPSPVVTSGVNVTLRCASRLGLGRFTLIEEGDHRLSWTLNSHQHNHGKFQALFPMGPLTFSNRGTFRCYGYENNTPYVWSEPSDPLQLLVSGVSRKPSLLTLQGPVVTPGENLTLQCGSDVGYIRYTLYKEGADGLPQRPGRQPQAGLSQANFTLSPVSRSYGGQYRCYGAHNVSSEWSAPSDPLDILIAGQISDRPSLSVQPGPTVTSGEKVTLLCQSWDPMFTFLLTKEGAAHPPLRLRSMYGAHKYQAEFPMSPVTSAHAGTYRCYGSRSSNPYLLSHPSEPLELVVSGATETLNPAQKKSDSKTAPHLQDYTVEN
Sequence of LILRB1 (chain, as listed by the source limits assumed): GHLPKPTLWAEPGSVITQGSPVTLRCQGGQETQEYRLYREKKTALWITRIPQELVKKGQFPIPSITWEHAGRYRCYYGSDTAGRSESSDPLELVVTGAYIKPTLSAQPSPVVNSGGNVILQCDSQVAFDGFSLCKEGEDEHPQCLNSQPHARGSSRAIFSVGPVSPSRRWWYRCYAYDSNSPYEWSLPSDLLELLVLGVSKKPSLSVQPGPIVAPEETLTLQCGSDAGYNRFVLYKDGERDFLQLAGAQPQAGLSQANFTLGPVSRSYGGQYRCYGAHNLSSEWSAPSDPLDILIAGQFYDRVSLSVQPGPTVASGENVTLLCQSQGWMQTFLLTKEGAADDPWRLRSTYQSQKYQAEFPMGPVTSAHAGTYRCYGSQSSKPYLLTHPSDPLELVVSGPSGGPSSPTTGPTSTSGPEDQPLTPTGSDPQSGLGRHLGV
Sequence of LILRA6 (chain, as listed by the source limits assumed): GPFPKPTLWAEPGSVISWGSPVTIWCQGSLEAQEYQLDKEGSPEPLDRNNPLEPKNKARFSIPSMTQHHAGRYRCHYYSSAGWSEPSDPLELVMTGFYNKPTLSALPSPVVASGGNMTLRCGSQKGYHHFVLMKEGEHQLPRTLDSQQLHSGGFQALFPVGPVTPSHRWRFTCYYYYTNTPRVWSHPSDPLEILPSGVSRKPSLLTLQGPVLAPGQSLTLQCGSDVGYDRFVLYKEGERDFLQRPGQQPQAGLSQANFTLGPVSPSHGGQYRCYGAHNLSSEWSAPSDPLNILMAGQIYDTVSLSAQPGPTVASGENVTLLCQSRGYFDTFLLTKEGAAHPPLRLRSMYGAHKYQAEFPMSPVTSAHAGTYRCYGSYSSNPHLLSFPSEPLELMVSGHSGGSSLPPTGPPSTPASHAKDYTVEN

Question: Which MFI (LAIR1 on reporter cells) does the source give for 2nd Ab (antibody) here?
Answer: The MFI was 23.

Question: And the MFI [1]?
Answer: Its MFI is 10.

Question: And the MFI (LILRA2)?
Answer: The MFI was 9.

Question: And the MFI (LILRA3)?
Answer: The MFI was 10.

Question: And the MFI (LILRA4)?
Answer: Its MFI is 10.

Question: And the MFI (LILRA5)?
Answer: Its MFI is 11.

Question: What about the MFI (LILRA6) of the same substance?
Answer: Its MFI is 10.

Question: And the MFI (LILRB1)?
Answer: The MFI was 9.

Question: And the MFI [2]?
Answer: The MFI was 10.

Question: And the MFI (LILRB3)?
Answer: The MFI was 9.

Question: And the MFI (LILRB4)?
Answer: Its MFI is 13.

Question: What about the MFI (LILRB5) of the same substance?
Answer: Its MFI is 11.

Source: patent US20230068663A1
